# Reference: the RNAGym collection of RNA variant scans (doi:10.1101/gr.219683.116)
# B1: mRNA-splicing (parent)
# chain: AGUUGCUGCUGGGAGCUCCAGCACAGUGAAAUGGACAGAAGGGCAGAGCAA
# Variants of: B1
# Assay: exon inclusion enrichment index; higher = more inclusion; WT1 exon 5 minigene, HEK293
row,Variant,exon inclusion enrichment index
1,AGUUAUAUAUGGGAGCUCCAGCACAGUGAAAUUAACAGAAGGGCAGAGCAA [G5A C6U U7A G8U C9A G33U G34A],0.0131
2,AGUUGAAGAGAGGAGCUCCAGCACAGUGAAAUGGACAGAAGGGCAGAGCAA [C6A U7A C9A U10G G11A],1.24
3,AGUUCUUCUCGGGAGCUCCAGCACUCUGAAAUGGACAGAAGGGCAGAGCAA [G5C C6U G8C C9U U10C A25U G26C],2.38
4,AGUUGACGACGGGAGCUCCAGCACAUAGAAAUGGACAGAAGGGCAGAGCAA [C6A U7C C9A U10C G26U U27A],2.38
5,AGUUUCUUUUGGGAGCUCCAGCACAGUGAAACUGACAGAAGGGCAGAGCAA [G5U G8U C9U U32C G33U],0.0499
6,AGUUGAAGAAGGGAGCUCCAGCACAGUGAAAUGGACAGAAGGGCAGCGCAA [C6A U7A C9A U10A A47C],1.15
7,AGUUCGCGCCGGGUCCUCCAGCACAGUGAAAUGGACAGAAGGGCAGAGCAA [G5C C6G U7C U10C A14U G15C],1.8
8,AGUUGACGACGGGAGCUCCAGCACAGUGAAAUGGACAGAGGGGCAGAGCAA [C6A U7C C9A U10C A40G],3.27
9,AGUUAUAUAUGGGAGCUCCAGCACAGUGAAAUGGACAGAACGGCAGAGCAA [G5A C6U U7A G8U C9A G41C],0.435
10,AGUUAGGGAUGGGAGCUCGUGCACAGUGAAAUGGACAGAAGGGCAGAGCAA [G5A C6G U7G C9A C19G A20U],0.00167
11,AGUUCUUCUCGCGAGCUCCAGCACAGUGAAAUGGACAGAAGGGCAGAGCAA [G5C C6U G8C C9U U10C G12C],1.51
12,AGUUCUUCUCGGGAAAUCCAGCACAGUGAAAUGGACAGAAGGGCAGAGCAA [G5C C6U G8C C9U U10C G15A C16A],1.24
13,AGUUAGGGAUCGGAGCUCCAGCACAGUGAAAUGGACAGAAGGGCAGAGCAA [G5A C6G U7G C9A G11C],0.00307
14,AGUUGACGAACGGAGCUCCAGCACAGUGAAAUGGACAGAAGGGCAGAGCAA [C6A U7C C9A U10A G11C],2.78
15,AGUUGCCGCCGGGAGCUCCAGCACAGUGAAAUGGACAGAAGGGCAGAGCAA [U7C U10C],2.76
16,AGUUACCACCGGGAGCUCCAGCACAGUGAAAUGGACAUUAGGGCAGAGCAA [G5A U7C G8A U10C G38U A39U],0.126
17,AUCUACCACCGGGAGCUCCAGCACAGUGAAAUGGACAGAAGGGCAGAGCAA [G2U U3C G5A U7C G8A U10C],4.11
18,AGUUCGCGCCGGGAGCUCCAGCACAGUGCCAUGGACAGAAGGGCAGAGCAA [G5C C6G U7C U10C A29C A30C],3.82
19,AGUUGAAGAAGGGAGCUCCUGCACAGUGAAAUGGACAGAAGGGCAGAGCAA [C6A U7A C9A U10A A20U],0.829
20,AGUUUCCUUUGGGAGCUCCAGCACAGUGAAAUGGACAGAAGGGCAGAGCAA [G5U U7C G8U C9U],0.184
21,AGUUCGCGCCGGGAGCUCCAGCACAGUGAAAUGGACAGAAGAUCAGAGCAA [G5C C6G U7C U10C G42A G43U],5.36
22,AGUUAGGGAUGGGAGCUCCAGCUGAGUGAAAUGGACAGAAGGGCAGAGCAA [G5A C6G U7G C9A A23U C24G],0.000949
23,AGUUGAAGAAGGGACAUCCAGCACAGUGAAAUGGACAGAAGGGCAGAGCAA [C6A U7A C9A U10A G15C C16A],0.525
24,AGUUCGCGCCGGGAGCUCCAGCAAGGUGAAAUGGACAGAAGGGCAGAGCAA [G5C C6G U7C U10C C24A A25G],3.65
25,AGCUAUAUAUGGGAGCUCCAGCACAGUGAAAUGGACAGAAGGGCAGAGCAA [U3C G5A C6U U7A G8U C9A],0.098
26,AGUUGCUGCUGGGAAUUCCAGCACAGUGAAAUGGACAGAAGGGCAGAGCAA [G15A C16U],0.014

row,Variant,exon inclusion enrichment index
1,AGUUGACGACGGGAGCUCCAGCACAGUGAAAUGGACAAAAGGGCAGAGCAA [C6A U7C C9A U10C G38A],2.2
2,AGUUCGCGCCGGGAGCAGCAGCACAGUGAAAUGGACAGAAGGGCAGAGCAA [G5C C6G U7C U10C U17A C18G],4.2
3,AGUUACCACCGGGAGCUCCAGCACAGUGAAAUGGACAAGAGGGCAGAGCAA [G5A U7C G8A U10C G38A A39G],2.26
4,AGUUGAAGAAGGGAGCUCCAGCACAGUGAAAUGGACAAGAGGGCAGAGCAA [C6A U7A C9A U10A G38A A39G],0.862
5,AGUUCGCGCCGGGAGCUCCAGCACAGUGAAAUGCACAGAAGGGCAGAGCAA [G5C C6G U7C U10C G34C],1.79
6,AGUAUCCACCGGGAGCUCCAGCACAGUGAAAUGGACAGAAGGGCAGAGCAA [U4A G5U U7C G8A U10C],2.36
7,AGUUGCUGGAGGGAGCUCCAGCACAGUGAAAUGGACAGAAGGGCAGAGCAA [C9G U10A],0.0101
8,AGUUCUUCUCGGGAGCUCCAGCACAGUGAAAUGGACAGAGGGGCAGAGCAA [G5C C6U G8C C9U U10C A40G],1.61
9,AGUUGACGACGGGAGCUCCAGCACAGUGAAAUGGACAUGAGGGCAGAGCAA [C6A U7C C9A U10C G38U A39G],1.89
10,AGUUCACACAGGGAGCUCCAGCACAGUGAAAUGGACAGAAGGGCACGGCAA [G5C C6A U7C G8A U10A G46C A47G],0.199
11,AGUUCACACAGGGAGCUCCGCCACAGUGAAAUGGACAGAAGGGCAGAGCAA [G5C C6A U7C G8A U10A A20G G21C],0.164
12,AGUUGCUGCUGGGAGCUCCAGUUCAGUGAAAUGGACAGAAGGGCAGAGCAA [C22U A23U],1.19
13,AGUUCACACAGGGAGCUCCAGCACAGUGAAAUGGACAGAAGGUAAGAGCAA [G5C C6A U7C G8A U10A G43U C44A],0.00933
14,AGUUUUAGAAGGGAGCUCCAGCACAGUGAAAUGGACAGAAGGGCAGAGCAA [G5U C6U U7A C9A U10A],0.0191
15,AGUUGAAGAAGGGAGCUCCAGCACACGGAAAUGGACAGAAGGGCAGAGCAA [C6A U7A C9A U10A G26C U27G],2.09
16,AGUUACCACCGUGAGCUCCAGCACAGUGAAAUGGACAGAAGGGCAGAGCAA [G5A U7C G8A U10C G12U],1.13
17,AGUUCACACAGGGAGCUCCAGCGCAGUGAAAUGGACAGAAGGGCAGAGCAA [G5C C6A U7C G8A U10A A23G],0.287
18,AGUUCACACAGGGAGCUCCAGCACAGUGAAAUGGACAGAAGGGCGUAGCAA [G5C C6A U7C G8A U10A A45G G46U],0.0847
19,AGUUAUAGCUGGGAGCUCCAGCACAGUGAAAUGGACAGAAGGGCAGAGCAA [G5A C6U U7A],0.0138
20,AGUUCACACAGGGAGCUCCAGACCAGUGAAAUGGACAGAAGGGCAGAGCAA [G5C C6A U7C G8A U10A C22A A23C],0.364
21,AGUUUCUUUUGGGAGCUCCAGCACAGCAAAAUGGACAGAAGGGCAGAGCAA [G5U G8U C9U U27C G28A],0.135
22,AGUUCACACAGGGAGCUCCAGCACUAUGAAAUGGACAGAAGGGCAGAGCAA [G5C C6A U7C G8A U10A A25U G26A],0.172
23,AGUUGAAGAAGGGAGCUCCAGCACAGUGAAAUGGCGAGAAGGGCAGAGCAA [C6A U7A C9A U10A A35C C36G],0.657
24,AGUUCUUCUCGGGAGCUCCAGCACAGUGAAAUAUACAGAAGGGCAGAGCAA [G5C C6U G8C C9U U10C G33A G34U],0.283
25,AGUUAUAUAUGGGAGCUCCAGCACAGUGAAAUGGACAGAAACGCAGAGCAA [G5A C6U U7A G8U C9A G41A G42C],0.172
